Values quoted from earlier work, collected in patent US6713294B1, “DNA glycosylases and their use” (priority 1996, dated 2004).

System: imidazole ring-opened form of 7-methylguanine-DNA substrate
Conditions: Boiteux et al. (1990); cited from earlier work

B1: FPG protein: formamido-pyrimidine-DNA glycosylase (protein, UniProt P05523 2-269, looked up)
Formamidopyrimidine-DNA …: PELPEVETSRRGIEPHLVGATILHAVVRNGRLRWPVSEEIYRLSDQPVLSVQRRAKYLLLELPEGWIIIHLGMSGSLRILPEELPPEKHDHVDLVMSNGKVLRYTDPRRFGAWLWTKELEGHNVLTHLGPEPLSDDFNGEYLHQKCAKKKTAIKPWLMDNKLVVGVGNIYASESLFAAGIHPDRLASSLSLAECELLARVIKAVLLRSIEQGGTTLKDFLQSDGKPGYFAQELQVYGRKGEPCRVCGTPIVATKHAQRATFYCRQCQK
  Kcat on imidazole ring-opened form of 7-methylguanine-DNA: 0.0233 s⁻¹
